Experimental data as given in patent US11453702B2, “Bicyclic peptide ligands specific for Nectin-4” (priority 2018, dated 2022).
*1 amine or outer side, *2 acyl side, *3 side chain or, on linkers, in order; H or OH if unused. Where a SMILES comes first, the peptide text is derived from it. Bridges are numbered along the chain shown (N, C = ends). Roman numbers before positions name the chains, in order. [ ]: non-standard residue; d: D form. The star is where a group is joined. ξ: configuration not given here. TATA = O=C(CC[*:1])N1CN(C(=O)CC[*:2])CN(C(=O)CC[*:3])C1; Dolaproine = CO[C@@H]([C@@H]1CCCN1)[C@@H](C)C(=O)O; X1 = CC[C@H](C)C(C(CC(=O)[*:2])OC)N(C)[*:1]; Dil = CC[C@H](C)[C@H](NC)[C@@H](CC(=O)O)OC; 1Nal = N[C@@H](Cc1cccc2ccccc12)C(=O)O; X3 = O=C(CCCC(=O)[*:2])NCCC(=O)[*:1]; PABC = O=C(OCc1ccc(N[*:1])cc1)[*:2]; X4 = C[C@@H](N*)[C@@H](O)c1ccccc1; Hyp = O=C(O)[C@@H]1C[C@@H](O)CN1; hArg = N=C(N)NCCCC[C@H](N)C(=O)O; Cit = NC(=O)NCCC[C@H](N)C(=O)O; X2 = CC(N*)[C@@H](O)c1ccccc1; NMeV = CN[C@H](C(=O)O)C(C)C; ξNMeV = CNC(C(=O)O)C(C)C; ξV = CC(C)C(N)C(=O)O; Sar = CNCC(=O)O

Legend:
[1] = tested on: HT-1376 xenograft; settings: 5 mg/kg qw, during the treatment schedule
Experimental: All data were analyzed using GraphPad Prism 5.0. P<0.05 was considered to be statistically significant.
The objective of the research is to evaluate the in vivo anti-tumor efficacy of test articles in treatment of HT-1376 xenograft in CB17-SCID mice.
The HT-1376 tumor cells were maintained in vitro as a monolayer culture in EMEM medium supplemented with 10% heat inactivated fetal bovine serum at 37° C. in an atmosphere of 5% CO2 in air. The tumor cells were routinely subcultured twice weekly by trypsin-EDTA treatment. The cells growing in an exponential growth phase were harvested and counted for tumor inoculation.
Each mouse was inoculated subcutaneously at the right flank with HT-1376 tumor cells (5×10^6) in 0.2 ml of PBS with matrigel (1:1) for tumor development. Animals were randomized when the average tumor volume reached 153-164 mm^3. The test article administration and the animal numbers in each group were shown in the experimental design table.
The HT-1376 tumor cells will be maintained in EMEM medium supplemented with 10% heat inactivated fetal bovine serum at 37° C. in an atmosphere of 5% CO2 in air. The tumor cells will be routinely subcultured twice weekly. The cells growing in an exponential growth phase will be harvested and counted for tumor inoculation. […]

[2] = tested on: NCI-H292 xenograft; experiment: In vivo efficacy in NCI-H292 xenograft (NSCLC model) in BALB/c nude mice (Examples 1, 5, 9.5); settings: Ex 1; all treatment animals during the dosing schedule
Excerpt: The animals will be randomized and treatment will be started when the average tumor volume reaches approximately 158-406 mm^3.
The objective of the research is to evaluate the in vivo anti-tumor efficacy of test articles in treatment of NCI-H292 xenograft in Balb/c nude mice.

[3] = tested on: A549 xenograft; experiment: In vivo efficacy in A549 xenograft in Balb/c nude mice (Example 9.1); settings: mouse
Experimental: (§1) The major endpoint was to see if the tumor growth could be delayed or mice could be cured. Tumor volume was measured three times weekly in two dimensions using a caliper, and the volume was expressed in mm^3 using the formula: V=0.5 a×b^2 where a and b are the long and short diameters of the tumor, respectively. The tumor size was then used for calculations of T/C value. The T/C value (in percent) is an indication of antitumor effectiveness; T and C are the mean volumes of the treated and control groups, respectively, on a given day.
(§2) TGI was calculated for each group using the formula: TGI (%)=[1−(Ti−T0)/(Vi−V0)]×100; Ti is the average tumor volume of a treatment group on a given day, T0 is the average tumor volume of the treatment group on the day of treatment start, Vi is the average tumor volume of the vehicle control group on the same day with Ti, and V0 is the average tumor volume of the vehicle group on the day of treatment start.
(§3) A one-way ANOVA was performed to compare tumor volume among groups, and when a significant F-statistics (a ratio of treatment variance to the error variance) was obtained, comparisons between groups were carried out with Games-Howell test. All data were analyzed using GraphPad Prism 5.0. P<0.05 was considered to be statistically significant. […]

[4] = BCY8245 (BT8009) injected at 3 mg/kg; MDA-MB-468 xenograft animals
Experimental: At various timepoints, animals were euthanized and plasma and tumour taken and snap frozen. Samples were analysed for MMAE.

[5] = tested on: CTG-1771, CTG-1171, CTG-1106 and CTG-0896 PDX models; settings: all models
Excerpt: To evaluate the antitumor activity of Bicycle Agent in Low Passage Champions TumorGraft Models of Human Breast, Esophageal, and Bladder Cancer in Immunocompromised mice.
Pre-study Animals: When sufficient stock animals reach 1.0-1.5 cm^3, tumors will be harvested for re-implantation into pre-study animals. Pre-study animals will be implanted unilaterally on the left flank with tumor fragments harvested from stock animals. Each animal is implanted from a specific passage lot and documented.
Study Animals: Pre-study tumor volumes are recorded for each experiment beginning seven to ten days after implantation. When tumors reach an average tumor volume of 150-300 mm^3, animals will be matched by tumor volume into treatment or control groups to be used for dosing and dosing initiated on Day 0.

[6] = tested on: NCI-H526 xenograft; settings: 5 mg/kg biw (so in the source)
Experimental: as §1, §2, §3

[7] = tested on: MDA-MB-468 cell line; experiment: HCS assay, Nectin-4 BDC binding study (Example 11); type: cell-based
Experimental: HCS assay was used in Nectin-4 BDC binding study. Cells were incubated with test agent and then washed. Detection was by a fluorescent antibody to MMAE.

SMILES	animal bodyweight loss [1]	bodyweight (in words) [2]	bodyweight (in words) [3]	retention of MMAE in tumour versus plasma (in words) [4]	tolerability compared with Docetaxel (in words) [5]	animal bodyweight loss [6]	binding affinity (Kd) on MDA-MB-468 cell line (in words) [7]	retention on the cells (in words) ([7]; MDA-MB-468 cells, detection by fluorescent antibody to MMAE)
CC[C@H](C)C(C(CC(=O)N1CCC[C@H]1[C@H](OC)[C@@H](C)C(=O)NC(C)[C@@H](O)c1ccccc1)OC)N(C)C(=O)[C@@H](NC(=O)C(C(C)C)N(C)C(=O)OCc1ccc(NC(=O)[C@H](CCCNC(N)=O)NC(=O)C(NC(=O)CCCC(=O)NCCC(=O)N(C)CC(=O)N(C)CC(=O)N(C)CC(=O)N(C)CC(=O)N(C)CC(=O)N(C)CC(=O)N(C)CC(=O)N(C)CC(=O)N(C)CC(=O)N(C)CC(=O)N[C@H]2CSCCC(=O)N3CN4CN(C3)C(=O)CCSC[C@H](NC(=O)[C@@H](CC(=O)O)NC(=O)[C@H](Cc3cccc5ccccc35)NC(=O)[C@@H]3CCCN3C2=O)C(=O)N[C@@H](CCSC)C(=O)N[C@@H](CCCCNC(=N)N)C(=O)N[C@@H](CC(=O)O)C(=O)N[C@@H](Cc2c[nH]c3ccccc23)C(=O)N[C@@H](CO)C(=O)N[C@@H]([C@@H](C)O)C(=O)N2CCC[C@H]2C(=O)N2C[C@H](O)C[C@H]2C(=O)N[C@@H](Cc2c[nH]c3ccccc23)C(=O)N[C@H](C(N)=O)CSCCC4=O)C(C)C)cc1)C(C)C (stereo partly drawn) [BCY8245, MMAE-PABC-Cit-Val-Glutaryl-BCY8234] (I: [Sar][Sar][Sar][Sar][Sar][Sar][Sar][Sar][Sar][Sar]CP[1Nal][dD]CM[hArg]DWSTP[Hyp]WC-NH2 / II: [ξV][Cit][PABC][ξNMeV]V[X1][Dolaproine]-X2; linker I:11-I:15-I:25 via TATA; linker I:N-II:N via X3)	over 10%	continued bodyweight loss	maintained the bodyweight well	MMAE was retained in the tumour longer than in plasma	better tolerated than Docetaxel	over 10%	–	–
CC[C@H](C)[C@@H]([C@@H](CC(=O)N1CCC[C@H]1[C@H](OC)[C@@H](C)C(=O)N[C@H](C)[C@@H](O)c1ccccc1)OC)N(C)C(=O)[C@@H](NC(=O)[C@@H](NC)C(C)C)C(C)C [MMAE, Monomethyl auristatin E] (H-[NMeV]V[Dil][Dolaproine]-X4)	–	–	–	–	–	–	almost no detectable binding affinity	minimal retention
